The target in assay [1] is T1, human complement Factor H (human, UniProt P08603 19-1231).
T1 construct: complement factor H, human, purified; also called FH
Kind of assay: SPR; Biacore X100; FH coupled to a CM4 chip, recombinant PspCs injected at five increasing concentrations (kinetic titration); PBS-P+ buffer; fitted with a 1:1 binding model. The settings on record: both partners purified.

In assay [2] the target is T1, human complement Factor H. The description is as above. The conditions noted are these: both partners purified. The source holds these as a separate data set.

T1 sequence (P08603 19-1231): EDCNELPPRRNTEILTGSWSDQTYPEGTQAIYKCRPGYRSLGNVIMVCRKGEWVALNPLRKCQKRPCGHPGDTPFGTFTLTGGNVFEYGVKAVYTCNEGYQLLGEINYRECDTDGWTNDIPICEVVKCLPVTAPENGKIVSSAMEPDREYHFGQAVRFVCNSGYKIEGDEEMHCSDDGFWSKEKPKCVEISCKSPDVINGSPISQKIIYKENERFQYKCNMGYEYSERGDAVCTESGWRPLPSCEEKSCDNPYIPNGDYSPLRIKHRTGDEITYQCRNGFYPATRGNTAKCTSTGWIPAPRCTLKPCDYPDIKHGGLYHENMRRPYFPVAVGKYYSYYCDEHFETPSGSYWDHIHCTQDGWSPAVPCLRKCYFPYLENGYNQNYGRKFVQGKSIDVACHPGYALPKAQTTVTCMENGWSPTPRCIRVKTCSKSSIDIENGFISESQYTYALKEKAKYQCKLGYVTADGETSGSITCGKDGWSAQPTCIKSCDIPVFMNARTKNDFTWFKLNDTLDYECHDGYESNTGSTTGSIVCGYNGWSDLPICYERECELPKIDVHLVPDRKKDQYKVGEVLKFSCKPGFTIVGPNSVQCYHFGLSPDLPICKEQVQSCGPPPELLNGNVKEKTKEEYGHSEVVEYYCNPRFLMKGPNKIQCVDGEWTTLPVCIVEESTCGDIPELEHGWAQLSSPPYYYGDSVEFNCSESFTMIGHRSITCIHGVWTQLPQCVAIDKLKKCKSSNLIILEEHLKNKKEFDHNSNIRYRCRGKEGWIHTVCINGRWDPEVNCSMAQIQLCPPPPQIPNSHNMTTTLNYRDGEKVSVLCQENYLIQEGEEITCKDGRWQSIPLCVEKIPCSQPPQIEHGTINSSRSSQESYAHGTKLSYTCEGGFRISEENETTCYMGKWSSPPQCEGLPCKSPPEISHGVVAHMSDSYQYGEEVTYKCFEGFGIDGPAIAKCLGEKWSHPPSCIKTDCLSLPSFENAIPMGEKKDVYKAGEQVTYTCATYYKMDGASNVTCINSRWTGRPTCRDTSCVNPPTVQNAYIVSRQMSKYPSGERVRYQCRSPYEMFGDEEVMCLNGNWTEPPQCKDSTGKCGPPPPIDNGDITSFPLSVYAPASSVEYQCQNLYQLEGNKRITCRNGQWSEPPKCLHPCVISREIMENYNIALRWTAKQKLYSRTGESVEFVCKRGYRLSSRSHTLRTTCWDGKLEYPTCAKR

B1: recombinant PspC1 (BHN418) (domain or fragment)
chain: EEVGGRNTPTVTSSGQDISKKYADEVESHLKKILSEIQTQLDRKRHTKTVALINELQDIKKTYLYNLNVLKEKSELPSKIKAKLEVAFDQFKKDTLKPGEKVAEAEKKVAEAKKKAEDQKEEDRRNYPTNTYKTLELEIAESDVKVKEAELELVNEEAKPGNEEKIKKAKAKVESEKAEAIRLEEIKTDREEAKRKADAKLKEAVENNAATSEQGEPKRRVKRGVLGEPATPDKKENDAKSSDSSVGEETLPSPSLKPEKKVAEAEKKAKDQKEEDRRNYPTNTYKTLELEIAESDVKVKEAELELVKEEAKESRNEEKVKQAKAKVESKKAEATRLEKIKTDRKKAEEAKRKAAEEDKVKEKPAEQPQPAPAPQPEKPAPKPEKPAPAPKPENPAEQPKAEKPADQQAEEDYARRSEEEYNRLTQQQPPKTEKPAQPSTPKTGWKQENGMWYFYNTDGSMA
What is called Kd is a measure of binding affinity in units of concentration. What is called koff is the first-order rate constant of dissociation. For orientation: kon means a measure of how fast the partners come together. With B1, the Kd in assay [1] stood at 0.0908 nM. In assay [2], the Kd is 0.09 nM, the koff turned out to be 6.2e-05 s⁻¹ and the kon stood at 690000 M⁻¹ s⁻¹.

B2: recombinant PspC2 (BHN418) (domain or fragment)
chain: TEKEGSTQAATSFNRGNGSQAEQRGELDLERDKAMKAVSEYVGKMVRDAYVKSDRKRHKNTVALVNQLGNIKNRYLNEIVHSTSKSQLQELMMKSQSEVDEAVSKFEKDSFSSSSSGSSTKPETPQPENPEHQKPTTPSPDTKPSPQPEGKKPSVPDINQEKEKAKLAVVTYMSKILDDIQKHHLQKEKHRQIVALIKELDELKKQALSEIDNVNTKVEIENTVHKIFADMDAVVTKFKKGLTQDTPKEPGNKKPSAPKPGMQPSPQPEVKPQLEKPKPEVKPQPEKPKPEVKPQPEKPKPEVKPQPEKPKPEVKPQPEKPKPEVKPQPEKPKPEVKPQPEKPKPEVKPQPEKPKPEVKPQPEKPKPEVKPQPEKPKPEVKPQPEKPKPEVKPQPEKPKPEVKPQPEKPKPEVKPQPEKPKPEVKPQPEKPKPEVKPQPEKPKPEVKPQPEKPKPEVKPQPEKPKPEVKPQPEKPKPEVKPQPEKPKPDNSKPQADDKKPSTTNNLSKDKQPSNQASTNEKATNKPKK
notes: PspC2 of Streptococcus pneumoniae BHN418, lacking the LPxTG motif and the first 37 aa (signal peptide); whole precursor given in Supplementary Data 1; cloned NdeI/XhoI in pET28a; source: E. coli Rosetta (DE3), purified (Ni-NTA, thrombin, Ni-NTA, Superdex 75); not shown: 6xHis, N-terminal, cleaved
Take B2: in assay [2], the Kd turned out to be 0.013 nM, the koff is 5.5e-05 s⁻¹ and the kon was 4.1e+06 M⁻¹ s⁻¹.

For the origin of these results see paper PMC6107515, “Factor H binding proteins protect division septa on encapsulated Streptococcus pneumoniae against complement C3b deposition and amplification” (Nature Communications, 2018).
